Our source for the binding values is publication PMC6528599.

The target of this data set is T1, GlaR (YugA) (Lactococcus lactis IL1403) (UniProt Q7DAT6).
T1 sequence: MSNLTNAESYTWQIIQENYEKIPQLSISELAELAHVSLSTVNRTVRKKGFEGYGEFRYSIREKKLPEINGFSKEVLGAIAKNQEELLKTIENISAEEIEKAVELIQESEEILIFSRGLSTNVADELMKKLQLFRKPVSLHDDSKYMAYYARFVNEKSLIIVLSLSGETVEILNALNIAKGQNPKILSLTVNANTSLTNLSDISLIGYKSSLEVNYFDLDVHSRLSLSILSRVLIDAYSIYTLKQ
Description: EMSA. The following applies: EMSA: 1 nM DNA, 10 mM Tris-HCl pH 8.5, 10 mM MgCl2, 100 mM KCl, 0.1 mg/ml BSA (printed as 10x binding buffer), 250 mM galactose, 20 ul, 20 min at 37 C; 5% PAGE …. (Mobility shift assays separate free from complexed probe on a gel.)

For the sequence “CCATTACATTTTCATGACGATTACATACAAAAAAAGCTCAAAAATTTGAGCTTTTTTTTTCGAATTTTAGATAATTAACTAGTAACCTTTTGGATGACTTTGGTGCCATTTCCAAGCGTTCGTAATAATGTGCTCTAAATCATTTTGTGCTTTCCAACCCAAAATTTCACCAGCTTTTGTTGAATCAGCAACCAGCTCATCTGGGTCTCCTGCACGGCGTTCACCCATTTGGCTTGGAATTTCTTTACCTGTTACTTTTCGTGCGGTTTCAAGCACTTCAAG (double strand)”, the binding entry is “no binding”.

On to “GGACATTGGCATCTACTTGAAGAAGAAGCAGGAACATGGTTAAATATTGACGGATTCCATATGGGTGTAGGTGGAGATGATTCATGGAGTCCAAGTGTCGCTCAGGAATATTTATTGACAAAGGGAAATTATCATTATGAAGTTAGTTTTAAATTAACGTGATGATCCAAATTTTCAAGAATTTGATATAATATAGAGAAAATGGAGGTTCTTATGACGGTTTTAGTTCTTGGTGGAGCAGGATACGTGGGAAGTCACGCGGTAGATATGCTTCTTAAACGTGGTTACGATGTGGCAG (double strand) [galE upstream region]”, for which the binding result is given as “no binding”.
